T1: peptide DQ, ApCPEB PLD residues 121-140 with an N-terminal dansyl moiety (Aplysia californica, dansyl moiety (D*) on the N-terminus)
T1 construct: source: synthetic peptide, bought: GenScript
T1 peptide: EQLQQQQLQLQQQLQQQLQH


Target: T1, peptide DQ, ApCPEB PLD residues 121-140 …
Assay: FRET or BRET + other: 1D 1H NMR; 20-mer peptides at 5 °C in 10 mM KH2PO4; excitation of Trp at 280 nm, dansyl emission at 530-550 nm; 1D 1H NMR with DSS as concentration standard
Conditions: both partners purified

Row | Binder | binding result
1 | EQLQQQQLQLQQQLQQQLQHW (Trp added at the C-terminus (excited at 280 nm as the fluorescence donor); Wild-type stretch with one added Trp as a fluorescence probe; source: synthetic peptide, bought: GenScript) [peptide QW, ApCPEB PLD residues 121-140 with a C-terminal Trp] | binds
2 | WEQLQQQQLQLQQQLQQQLQH (Trp added at the N-terminus (excited at 280 nm as the fluorescence donor); Wild-type stretch with one added Trp as a fluorescence probe; source: synthetic peptide, bought: GenScript) [peptide WQ, ApCPEB PLD residues 121-140 with an N-terminal Trp] | binds
